What is called Kd is the concentration at which binding is half-saturated. Read a high Kd as weaker binding. A word on the clearance: it is a measure of how efficiently the substance is removed, as volume per time. Low readings indicate a low capacity for elimination, high ones a high capacity for elimination.

These results are taken from US20230031280A1, “GLP-2 FUSION POLYPEPTIDES AND USES FOR TREATING AND PREVENTING GASTROINTESTINAL CONDITIONS” (SHIRE-NPS PHARMACEUTICALS, INC., priority 2017, published 2023).

Data set [1] can be described thus: SEC-MALS (Sepax Zenix C-150) peak distribution. The class given is physicochemical. The procedure: A SEC-MALS assay was performed to determine the primary state (main peak) and its molecular weight. […] The GLP-2 peptibody O (albumin fusion) eluted at a molecular weight indicative of a monomer.
(§1) Stability analysis was then performed using SEC-MALS and NanoDSF. For SEC-MALS, a Sepax Zenix C-150 column was used. The mobile phase buffer was 1× PBS with a final concentration of 400 mM NaCl. The flow rate was 0.8 mL per minute. 20 micrograms of total protein was injected. For NanoDSF, 10 microliters of sample was used, without normalization of the samples.
as §1
A general note: In gel filtration, larger molecules generally elute earlier.

A short description of data set [2]: Rat pharmacokinetics, intravenous dosing. Conditions: single dose 1 mg/ml. In kind it is in vivo, Sprague-Dawley rats. On the procedure:
(§2) In the rat, four pharmacokinetic parameters were measured for Gattex® (a GLP-2 peptide having the A2G mutation): CL, Vc, Vt and Q. The same pharmacokinetic parameters were also measured for GLP-2 peptibodies A, B, E, J, K, L, M, O and P. The data is shown in Table 4. Male Sprague-Dawley rats (3 animals per group) were injected intravenously either via a jugular vein or tail vein catheter. A singles dose of test article was injected at a dose level of 1 mg/ml. The test articles were formulated in PBS pH 7.4 at a concentration of Blood samples were taken 0.083, 0.167, 0.33, 0.5, 1, 2, 6, 24, 48, 72, 120, 168, 240, and 336 hours post dose. Blood samples were collected into heparinized tubes and centrifuged for 5 minutes at 2000 xg within 10 minutes of collection. 100 μL of plasma were transferred to a 1.5 ml Eppendorf tube containing 2 μL of 50 mM PMSF. After mixing, the plasma samples were frozen at −80° C. until analysis.

Data set [3] can be described thus: Rat pharmacokinetics, subcutaneous dosing. The class given is in vivo, Sprague-Dawley rats. The note with it: single dose 1 mg/ml. The procedure: as §2, with “5.” for “4.”, “subcutaneously into the intra-scapular region of the animal.” for “intravenously either via a jugular vein or tail vein catheter.”, “[…]” for “1.5”, “mixing” for “mixing,”, “analysis. Meso Scale Discovery (MSD) ELISA was undertaken to assay for the concentration of the GLP-2 peptibodies.” for “analysis.”
A sandwich immunoassay was developed using either an anti-Human IgG1 Fc antibody or an anti-human albumin antibody for capture of the peptibody and a sulfotag labeled anti GLP-2 antibody for detection.

A short description of data set [4]: NanoDSF melting temperature / thermal stability. In kind it is physicochemical. The note with it: for NanoDSF melting temperature 1: first transition; for NanoDSF melting temperature 2: second transition. The procedure:
Each of the GLP-2 peptibodies was tested by determining melting temperature with nanodifferential scanning fluorimetry (NanoDSF). NanoDSF is a measurement of protein stability over a range of temperatures, with a temperature ramp employed. The stability of tryptophan is measured by fluorescence, as reflected in a ratio of fluorescence at 350 nm to fluorescence at 330 nm. From the assay, one or more melting temperatures are determined. Because a protein in a certain state is understood to have a melting temperature, the number of melting temperatures observed reflects the number of different states.
as §1, §1
In general terms: DSF heats the sample and reads unfolding from a dye or from intrinsic fluorescence.

Data set [5] deals with T1, hFcRn (extracellular domain of the FcRN) (Homo sapiens, UniProt P55899).
T1 construct: made in house
T1 sequence (P55899 24-297 limits assumed): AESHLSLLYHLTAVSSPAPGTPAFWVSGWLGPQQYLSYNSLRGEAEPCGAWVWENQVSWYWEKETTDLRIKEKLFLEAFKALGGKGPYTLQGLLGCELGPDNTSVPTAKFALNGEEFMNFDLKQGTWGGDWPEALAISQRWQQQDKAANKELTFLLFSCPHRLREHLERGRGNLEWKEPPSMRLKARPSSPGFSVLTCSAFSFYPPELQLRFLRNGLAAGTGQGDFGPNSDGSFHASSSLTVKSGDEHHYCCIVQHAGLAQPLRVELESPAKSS
T1 sequence (P61769 21-119 partner): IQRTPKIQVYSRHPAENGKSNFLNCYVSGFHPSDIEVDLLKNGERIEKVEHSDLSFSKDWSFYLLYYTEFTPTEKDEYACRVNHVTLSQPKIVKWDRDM
As to the kind of experiment: FcRn binding by surface plasmon resonance (Biacore). Conditions: for Kd: pH 5.5. From the text: Binding to the Fc neonatal receptor (FcRN) allows for recycling of the molecules and leads to an extended in vivo serum half-life of the Fc fusion proteins. Recycling occurs as the molecules are passively taken into the cells and the pH of the endosomes is lower. That leads to binding of the Fc portion of the molecule to the FcRN. When the FcRN recycles back to the surface of the cell, the pH is then neutral and the protein is released back into the serum.
Binding to the extracellular domain of the FcRN was measured by surface plasmon resonance (SPR) using a Biacore system. Direct immobilization with FcRn was achieved via amine coupling of a CM5 chip with FcRn under the following conditions: • i) hFcRn (expressed and purified in house) is diluted in Acetate buffer pH 5.0 to 5 μg/mL. • ii) Immobilize 5 μg/mL of FcRn with target of 500 RU on CM5 chip in PBS pH 7.0 • iii) Final response 454 RU • iv) Running buffer: PBS-P+, pHed to 5.5
The kinetic binding study was done using the following protocol. Samples were diluted in PBS-P+ to 50, 25, 12.5, 6.25, 3.125, 1.56, 0.78, 0.39, 0 nM. The parameters were set as follows: • i) Association and Dissociation 300 s at Flow rate 30 μL/min • ii) Regeneration with 25 mM Tris, 150 mM NaCl pH 8.0 40 s at 60 μL/min
A measurement of the binding of the GLP-2 peptibodies to the Fc neonatal receptor (FcRN) was undertaken at pH 5.5 and pH 7.4.
In general terms: SPR reads the build-up and loss of mass on a sensor chip optically.

The mark [6] stands for this setting: Table 7 (Example 6), 0.5 mg/mL sample.
Where [7] appears, read: Table 7 (Example 6), 1.5 mg/mL sample.
The mark [8] stands for this setting: Table 7 (Example 6), 5 mg/mL sample.
Setting [9] is: Table 7 (Example 6), 7.5 mg/mL sample.

As for “GLP-2 peptibody M: GLP-2[A2G]-GGGGSGGGGS linker-IgG1 Fc (LALA); SEQ ID NO: 25”, the “SEC-MALS Zenix C-150 main peak” value in data set [1] was 81.4% main peak, 148,500 g/mol. Also, in data set [2], the CL came to 1.6 mL/h/kg, the Q was found to be 7.62 mL/h/kg, the Vc was 12 mL/kg and the Vt is 0.0294 L/kg. Besides, in data set [3], the CL is 60.2 mL/day/kg, the Vc stood at 91.5 mL/kg and the ka result is recorded as “M (0.78 ka/day,”. In data set [4], the “NanoDSF melting temperature 1” value was 1 = 67.3 °C and the “NanoDSF melting temperature 2” value was 2 = 79.9 °C. For the same molecule, in data set [5], the Kd amounted to 1.81 nM and the “FcRN KD at pH 7.4” value is given as “No binding in range tested”.

Turning to “GLP-2 peptibody L: GLP-2[A2G]-GGGGGGG linker-IgG1 Fc (LALA); SEQ ID NO: 22”, the “SEC-MALS Zenix C-150 main peak” value in data set [1] is 87.4% main peak, 148,000 g/mol. In data set [2], this molecule came in with a CL of 2.8 mL/h/kg, a Q of 0.792 mL/h/kg, a Vc of 37.8 mL/kg and a Vt of 0.538 L/kg. Moreover, in data set [3], the CL came to 80.6 mL/day/kg, the Vc turned out to be 127 mL/kg and the ka entry was “L (0.63 ka/day,”. Besides, in data set [4], the “NanoDSF melting temperature 1” value was 1 = 67.5 °C and the “NanoDSF melting temperature 2” value was 2 = 80 °C. Further, in data set [5], binding was put at a Kd of 1.72 nM and the “FcRN KD at pH 7.4” value is listed as “No binding in range tested”.

In data set [2], “GLP-2 peptibody A: GLP-2[A2G] fused without linker to IgG1 Fc (LALA); SEQ ID NO: 13” gave a CL of 2.37 mL/h/kg, a Q of 2.42 mL/h/kg, a Vc of 43 mL/kg and a Vt of 0.079 L/kg. In data set [3], the CL came to 70.7 mL/day/kg, the Q is 3.25 mL/h/kg, the Vc worked out at 109 mL/kg and the Vt came out at 0.081 L/kg. Moreover, in data set [3], the ka result is “A (0.45 ka/day,”. Further, in data set [4], the “NanoDSF melting temperature 1” value was 1 = 67.0 °C and the “NanoDSF melting temperature 2” value is 2 = 80 °C. In data set [5], binding was put at a Kd of 1.38 nM and the “FcRN KD at pH 7.4” value is “No binding in range tested”.

In data set [2], “GLP-2 peptibody P: fusion of GLP-2, a linker that is also a GLP-2 sequence, and human serum albumin 25-609; SEQ ID NO: 30” displayed a CL of 7.08 mL/h/kg, a Q of 29.5 mL/h/kg, a Vc of 38.4 mL/kg and a Vt of 0.0439 L/kg.

In the case of `CC[C@H](C)[C@H](NC(=O)[C@H](Cc1ccccc1)NC(=O)[C@H](CC(=O)O)NC(=O)[C@H](CCCNC(=N)N)NC(=O)[C@H](C)NC(=O)[C@H](C)NC(=O)[C@H](CC(C)C)NC(=O)[C@H](CC(N)=O)NC(=O)[C@H](CC(=O)O)NC(=O)[C@H](CC(C)C)NC(=O)[C@@H](NC(=O)[C@@H](NC(=O)[C@H](CC(N)=O)NC(=O)[C@H](CCSC)NC(=O)[C@H](CCC(=O)O)NC(=O)[C@H](CC(=O)O)NC(=O)[C@H](CO)NC(=O)[C@H](Cc1ccccc1)NC(=O)[C@H](CO)NC(=O)CNC(=O)[C@H](CC(=O)O)NC(=O)CNC(=O)[C@@H](N)Cc1c[nH]cn1)[C@@H](C)O)[C@@H](C)CC)C(=O)N[C@@H](CC(N)=O)C(=O)N[C@@H](Cc1c[nH]c2ccccc12)C(=O)N[C@@H](CC(C)C)C(=O)N[C@H](C(=O)N[C@@H](CCC(N)=O)C(=O)N[C@H](C(=O)N[C@@H](CCCCN)C(=O)N[C@H](C(=O)N[C@H](C(=O)N[C@@H](CC(=O)O)C(=O)O)[C@@H](C)O)[C@@H](C)CC)[C@@H](C)O)[C@@H](C)CC` [Gattex], the clearance in data set [2] (male, Sprague-Dawley, plasma) is 1390 mL/h/kg. For the same molecule, the Vc in data set [2] is on record as 2,235 mL/kg. In data set [3], the CL is reported as 51,649 mL/day/kg and the Vc is recorded as 1,794 mL/kg.

In the case of “GLP-2 peptibody B264: GLP-2[A2G]-GGGGG linker-IgG1 Fc (LALA) without C-terminal lysine; SEQ ID NO: 1”, the “SEC LMW” value is recorded as 17.2% LMW in data set [1] (Table 6, 0.5 mg/mL sample); 20.8% LMW in data set [1] (Table 6, 1.5 mg/mL sample); 20.1% LMW in data set [1] (Table 6, 5 mg/mL sample); 17.4% LMW in data set [1] (Table 6, 11 mg/mL sample); 19.7% LMW in data set [1] (setting [6]); 21.4% LMW in data set [1] (setting [7]). The “SEC LMW” value in data set [1] (setting [8]) was found to be 20.8% LMW; in data set [1] (setting [9]), 19.9% LMW. The “SEC Main Peak” value in data set [1] (Table 6, 0.5 mg/mL sample) was found to be 82.8% Main Peak; in data set [1] (Table 6, 1.5 mg/mL sample), 77.2% Main Peak; in data set [1] (Table 6, 5 mg/mL sample) it was 77.9% Main Peak; in data set [1] (Table 6, 11 mg/mL sample) it was 80.5% Main Peak; in data set [1] (setting [6]), 77.4% Main Peak; in data set [1] (setting [7]), 78.6% Main Peak. The “SEC Main Peak” value in data set [1] (setting [8]) amounted to 79.2% Main Peak; in data set [1] (setting [9]), 80% Main Peak. Besides, the “SEC HMW” value in data set [1] (Table 6, 1.5 mg/mL sample) came to 2.1% HMW; in data set [1] (Table 6, 5 mg/mL sample), 2% HMW; in data set [1] (Table 6, 11 mg/mL sample), 2.1% HMW; in data set [1] (setting [6]), 2.9% HMW. The “Thermal Stability (NanoDSF) 1” value in data set [4] (Table 6, 0.5 mg/mL sample) was 1 = 67.1 °C; in data set [4] (Table 6, 1.5 mg/mL sample), 1 = 67.0 °C; in data set [4] (Table 6, 5 mg/mL sample), 1 = 67.2 °C; in data set [4] (Table 6, 11 mg/mL sample), 1 = 67.5 °C; in data set [4] (setting [6]), 1 = 67.6 °C; in data set [4] (setting [7]), 1 = 67.6 °C. Besides, the “Thermal Stability (NanoDSF) 1” value is 1 = 67.7 °C in data set [4] (setting [8]) and 1 = 67.8 °C in data set [4] (setting [9]). Besides, the “Thermal Stability (NanoDSF) 2” value in data set [4] (Table 6, 0.5 mg/mL sample) is 2 = 75.2 °C; in data set [4] (Table 6, 1.5 mg/mL sample), 2 = 74.8 °C; in data set [4] (Table 6, 5 mg/mL sample) it was 2 = 75.0 °C; in data set [4] (Table 6, 11 mg/mL sample), 2 = 74.7 °C; in data set [4] (setting [6]), 2 = 80.2 °C; in data set [4] (setting [7]), 2 = 80.2 °C. Besides, the “Thermal Stability (NanoDSF) 2” value in data set [4] (setting [8]) is 2 = 80.7 °C; in data set [4] (setting [9]), 2 = 80.4 °C.
